The results in this text go back to US10005817 (EUMEDERIS PHARMACEUTICALS, dated 2018).

Non-standard residues stand in square brackets, D forms with d. No end group written: not given here. *: point of attachment. Dmt = Cc1cc(O)cc(C)c1C[C@H](N)C(=O)O; Tic = O=C(O)[C@@H]1Cc2ccccc2CN1; NHBn = c1ccc(CN*)cc1

Assay [1] concerns the target delta2 opioid receptor. As to the kind of experiment: cell-based or functional assay.
The target of assay [2] is mu opioid receptor. As to the kind of experiment: cell-based or functional assay.
Chain of mu opioid receptor (P35372 whole entry): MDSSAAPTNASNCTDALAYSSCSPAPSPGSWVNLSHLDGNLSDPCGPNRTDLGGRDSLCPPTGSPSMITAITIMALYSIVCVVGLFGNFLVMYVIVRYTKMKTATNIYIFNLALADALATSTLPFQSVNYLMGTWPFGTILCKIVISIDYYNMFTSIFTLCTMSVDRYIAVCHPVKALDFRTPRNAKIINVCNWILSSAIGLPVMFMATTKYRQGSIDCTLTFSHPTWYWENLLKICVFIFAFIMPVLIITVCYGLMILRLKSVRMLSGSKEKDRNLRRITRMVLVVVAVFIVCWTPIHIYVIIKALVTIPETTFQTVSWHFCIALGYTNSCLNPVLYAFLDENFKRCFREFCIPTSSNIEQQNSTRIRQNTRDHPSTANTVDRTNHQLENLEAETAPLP

B1: EU-A639 (peptide)
peptide: [Dmt][Tic]F[dK](1‑methyl β‑D‑glucuronyl)-NHBn
B1: the “DOP antagonist IC50” value in assay [1] is less than 0.1 nM. Moreover, the “MOP agonist EC50” value in assay [2] worked out at 280 nM.

B2: EU-A620 (peptide)
peptide: [Dmt][Tic]FK(1‑methyl β‑D‑glucuronyl)-NHBn
Turning to B2, the “DOP antagonist IC50” value in assay [1] is less than 0.1 nM. In addition, in assay [2], the “MOP agonist EC50” value turned out to be 480 nM.

B3: EU-A178 (peptide)
peptide: H-[Dmt][Tic]FK(1'‑methyl β‑D‑glucuronyl)-NH2
Consider B3, for which, in assay [1], the “DOP antagonist IC50” value was less than 0.1 nM.

B4: EU-A180 (peptide)
peptide: H-[Dmt][Tic]FK(1'‑octyl β‑D‑glucuronyl)-NH2
For B4, the “DOP antagonist IC50” value in assay [1] was less than 0.1 nM. In addition, the “MOP agonist EC50” value in assay [2] came to 36 nM.
